Data from patent US20230406935A1 (F STAR THERAPEUTICS, published 2023).
Positions count from the first letter of the chain named.

B1: FS17-33-453AA/HELD1.3 (bispecific antibody)
chain 1: QVQLQESGPGLVRPSQTLSLTCTVSGSTFSGYGVNWVRQPPGRGLEWIGMIWGDGNTDYNSALKSRVTMLVDTSKNQFSLRLSSVTAADTAVYYCARERDYRLDYWGQGSLVTVSSASTKGPSVFPLAPSSKSTSGGTAALGCLVKDYFPEPVTVSWNSGALTSGVHTFPAVLQSSGLYSLSSVVTVPSSSLGTQTYICNVNHKPSNTKVDKKVEPKSCDKTHTCPPCPAPEAAGGPSVFLFPPKPKDTLMISRTPEVTCVVVDVSHEDPEVKFNWYVDGVEVHNAKTKPREEQYNSTYRVVSVLTVLHQDWLNGKEYKCKVSNKALPAPIEKTISKAKGQPREPQVYTLPPSRDELGYWVSLTCLVKGFYPSDIAVEWESNGEPQYWAKTTPPVLDSDGSFFLYSKLTVSNWRWQLDDVFSCSVMHEALHNHYTQKSLSLSPGK
chain 2: DIQMTQSPASLSASVGETVTITCRASGNIHNYLAWYQQKQGKSPQLLVYNAKTLADGVPSRFSGSGSGTQYSLKINSLQPEDFGSYYCQHFWSTPRTFGGGTKLEIKRTVAAPSVFIFPPSDEQLKSGTASVVCLLNNFYPREAKVQWKVDNALQSGNSQESVTEQDSKDSTYSLSSTLTLSKADYEKHKVYACEVTHQGLSSPVTKSFNRGEC
B2: FS17-33-459AA/HELD1.3 (bispecific antibody)
chain 1: B1 chain 1 with L357S, Q416R
chain 2: B1 chain 2
B3: FS17-33-460AA/HELD1.3 (bispecific antibody)
chain 1: B1 chain 1 with L357S, Q416H
chain 2: B1 chain 2
B4: FS17-33-449AA/HelD1.3 mock mAb^2 (bispecific antibody, human IgG1, kappa, L234A L235A)
heavy: B1 chain 1 with L357T
light: B1 chain 2
B5: FS17-33-456AA/HELD1.3 (bispecific antibody)
chain 1: B1 chain 1 with L357S, N412A
chain 2: B1 chain 2
B6: FS17-33-455AA/HELD1.3 (bispecific antibody)
chain 1: B1 chain 1 with L357Y
chain 2: B1 chain 2
B7: FS17-33-458AA/HELD1.3 (bispecific antibody)
chain 1: B1 chain 1 with L357S, N412H
chain 2: B1 chain 2
B8: FS17-33-461AA/HELD1.3 (bispecific antibody)
chain 1: B1 chain 1 with L357S, Q416S
chain 2: B1 chain 2
B9: FS17-33-462AA/HELD1.3 (bispecific antibody)
chain 1: B1 chain 1 with L357S, D419A
chain 2: B1 chain 2
B10: FS17-33-457AA/HELD1.3 (bispecific antibody)
chain 1: B1 chain 1 with L357S, N412Q
chain 2: B1 chain 2
B11: FS17-33-454AA/HELD1.3 (bispecific antibody)
chain 1: B1 chain 1 with L357F
chain 2: B1 chain 2
B12: FS17-33-451AA/HelD1.3 mock mAb^2 (bispecific antibody, human IgG1, kappa, L234A L235A)
heavy: B1 chain 1 with L357E
light: B1 chain 2
notes: also called F17-33-451AA/HelD1.3; F17-33-451AA/HELD1.3
B13: FS17-33-289AA/HelD1.3 mock mAb^2 (bispecific antibody, human IgG1, kappa, L234A L235A)
heavy: QVQLQESGPGLVRPSQTLSLTCTVSGSTFSGYGVNWVRQPPGRGLEWIGMIWGDGNTDYNSALKSRVTMLVDTSKNQFSLRLSSVTAADTAVYYCARERDYRLDYWGQGSLVTVSSASTKGPSVFPLAPSSKSTSGGTAALGCLVKDYFPEPVTVSWNSGALTSGVHTFPAVLQSSGLYSLSSVVTVPSSSLGTQTYICNVNHKPSNTKVDKKVEPKSCDKTHTCPPCPAPEAAGGPSVFLFPPKPKDTLMISRTPEVTCVVVDVSHEDPEVKFNWYVDGVEVHNAKTKPREEQYNSTYRVVSVLTVLHQDWLNGKEYKCKVSNKALPAPIEKTISKAKGQPREPQVYTLPPSRDESGYWVSLTCLVKGFYPSDIVVEWESNGEPQYWAKTTPPVLDSDGSFFLYSKLTVSNWRWQLDDFSCSVMHEALHNHYTQKSLSLSPGK
light: B1 chain 2
notes: also called F17-33-289AA/HelD1.3; F17-33-289AA/HELD1.3
B14: FS17-33-296AA/HelD1.3 mock mAb^2 (bispecific antibody, human IgG1, kappa, L234A L235A)
heavy: B13 heavy with L417V
light: B1 chain 2
notes: also called F17-33-296AA/HelD1.3; F17-33-296AA/HELD1.3
B15: anti-PD-L1 mAb YW243.55.S1 (antibody, V domains shown)
VH: not shown
VL: DIQMTQSPSSLSASVGDRVTITCRASQDVSTAVAWYQQKPGKAPKLLIYSASFLYSGVPSRFSGSGSGTDFTLTISSLQPEDFATYYCQQYLFTPPTFGQGTKVEIKR
B16: Fcab FS17-33-288 with LALA mutation (designed binder)
chain: TCPPCPAPEAAGGPSVFLFPPKPKDTLMISRTPEVTCVVVDVSHEDPEVKFNWYVDGVEVHNAKTKPREEQYNSTYRVVSVLTVLHQDWLNGKEYKCKVSNKALPAPIEKTISKAKGQPREPQVYTLPPSRDESGYWVSLTCLVKGFYPSDIVVEWESNGEPQYWAKTTPPVLDSDGSFFLYSKLTVSNWRWQIDDFSCSVMHEALHNHYTQKSLSLSPGK
B17: Fcab FS17-33-289 with LALA mutation (designed binder)
chain: B16 chain with I194L
B18: Fcab FS17-33-334 with LALA mutation (designed binder)
chain: B16 chain with V153A, I194L
B19: Fcab FS17-33-296 with LALA mutation (designed binder)
chain: B16 chain with I194V
B20: FS17-33-271AA/HELD1.3 (bispecific antibody)
chain 1: B13 heavy with V376A, Q416H
chain 2: B1 chain 2
B21: FS17-33-316AA/HELD1.3 (bispecific antibody)
chain 1: B13 heavy with V376A, D419A
chain 2: B1 chain 2
B22: FS17-33-241AA/HELD1.3 (bispecific antibody)
chain 1: B13 heavy with V376A, N412H
chain 2: B1 chain 2
B23: FS17-33-277AA/HELD1.3 (bispecific antibody)
chain 1: B13 heavy with V376A, Q416S
chain 2: B1 chain 2
B24: FS17-33-239AA/HELD1.3 (bispecific antibody)
chain 1: B13 heavy with V376A, N412Q
chain 2: B1 chain 2
B25: FS17-33-266AA/HELD1.3 (bispecific antibody)
chain 1: B13 heavy with V376A, Q416R
chain 2: B1 chain 2

Molecular target: T1, Monomeric His-tagged human PD-L1 (Acro biosystems PD1-H5229) (human, UniProt Q9NZQ7 19-238)
T1 construct: also called hPD-L1-his; PD-L1-his
Assay: off-rate, binding to hPD-L1, mock mAb^2; instrument not stated

T1 sequence (Q9NZQ7 19-238 limits assumed): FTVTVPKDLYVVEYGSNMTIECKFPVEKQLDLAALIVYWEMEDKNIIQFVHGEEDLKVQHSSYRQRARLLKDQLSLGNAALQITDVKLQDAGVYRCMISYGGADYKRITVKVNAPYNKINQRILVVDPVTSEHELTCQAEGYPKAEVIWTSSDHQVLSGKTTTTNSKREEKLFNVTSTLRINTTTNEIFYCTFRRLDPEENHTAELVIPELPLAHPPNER

Row | Binder | koff [s⁻¹]
1 | B1 | 0.000303
2 | B2 | 0.00038
3 | B3 | 0.000202
4 | B4 | 0.000311
5 | B5 | 0.000619
6 | B6 | 0.000343
7 | B7 | 0.000456
8 | B8 | 0.000359
9 | B9 | 0.000899
10 | B10 | 0.000589
11 | B11 | 0.000269
12 | B12 | 0.000253

Molecular target: T2, Cynomolgus PD-L1 expressed on HEK 293 cells (cynomolgus, UniProt Q9NZQ7 19-290 (human entry))
T2 construct: also called cell-expressed cynomolgus PD-L1
Assay: flow cytometry, HEK293 cells overexpressing the target, anti-human Fc 488
Procedure: (§1) Cell binding assays were performed by incubating Fcabs or mAb² proteins with either control HEK293 cells or HEK293 cells overexpressing hPD-L1 or cynomolgus PD-L1 cells for 1 hour at 4° C. Fcab/mAb binding was subsequently detected using an anti-human Fc 488 detection antibody. Fluorescent signal intensities were measured using a FACS canto.

T2 sequence (Q9NZQ7 other isoform, or with tags, fused parts or gaps limits assumed): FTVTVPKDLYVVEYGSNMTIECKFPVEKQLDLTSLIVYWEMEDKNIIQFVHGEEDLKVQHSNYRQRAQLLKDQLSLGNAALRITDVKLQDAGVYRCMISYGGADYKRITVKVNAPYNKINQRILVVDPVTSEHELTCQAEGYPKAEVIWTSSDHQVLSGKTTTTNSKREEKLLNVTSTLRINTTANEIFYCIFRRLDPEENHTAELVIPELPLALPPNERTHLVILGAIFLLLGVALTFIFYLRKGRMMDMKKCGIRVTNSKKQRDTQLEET

Row | Binder | Kd [pM]
13 | B13 | 2200
14 | B14 | 2000

Molecular target: T3, Human PD-L1 expressed on cells (human, UniProt Q9NZQ7 19-290)
T3 construct: also called cell-surface human PD-L1; hPD-L1
Assay: as above
Procedure: as §1

T3 sequence (Q9NZQ7 19-290 limits assumed): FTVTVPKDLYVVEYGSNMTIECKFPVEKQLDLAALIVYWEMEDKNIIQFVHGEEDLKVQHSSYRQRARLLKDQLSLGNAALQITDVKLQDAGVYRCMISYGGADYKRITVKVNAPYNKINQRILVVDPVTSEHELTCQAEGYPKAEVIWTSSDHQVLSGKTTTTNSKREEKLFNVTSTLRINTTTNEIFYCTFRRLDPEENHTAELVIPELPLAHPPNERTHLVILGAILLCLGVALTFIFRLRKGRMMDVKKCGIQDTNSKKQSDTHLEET

Row | Binder | Kd [pM]
15 | B13 | 3900
16 | B14 | 2700

Molecular target: T3, Human PD-L1 expressed on cells
Assay: cell-based or functional assay

Row | Binder | DO11.10 T cell activation assay EC50 [pM]
17 | B13 | 1560
18 | B4 | 950
19 | B12 | 1040
20 | B14 | 1120
21 | B15 | 257
22 | B16 | 137
23 | B17 | 228
24 | B18 | 381
25 | B19 | 166

Molecular target: T1, Monomeric His-tagged human PD-L1 (Acro …)
Assay: off-rate on PD-L1, mock mAb^2; instrument not given

Row | Binder | koff [s⁻¹]
26 | B20 | 0.000518
27 | B21 | 0.000566
28 | B22 | 0.000592
29 | B23 | 0.000415
30 | B24 | 0.000693
31 | B25 | 0.000377

Molecular target: T3, Human PD-L1 expressed on cells
Assay: cell-based or functional assay
Remark: another data set of the same source

Row | Binder | DO11.10 EC50 [pM]
32 | B20 | 254
33 | B21 | 563
34 | B22 | 304
35 | B23 | 319
36 | B24 | 588
37 | B25 | 434

Molecular target: T1, Monomeric His-tagged human PD-L1 (Acro …)
Assay: SPR Biacore T200, mAb^2 captured by anti-Fab on CM5, monomeric antigen in flow, 1:1 fit

Row | Binder | Kd [pM]
38 | B4 | 490
39 | B12 | 450

Molecular target: T4, Monomeric cynomolgus PD-L1 (Acro Biosciences PD1-C52H4) (cynomolgus, UniProt Q9NZQ7 19-238 (human entry))
T4 construct: also called cynomolgus monomeric PD-L1
Assay: as above

T4 sequence (Q9NZQ7 other isoform, or with tags, fused parts or gaps limits assumed): as the sequence (Q9NZQ7 19-238 limits assumed) above, with A33T, A34S, S62N, R68Q, Q82R, F173L, T185A, T192I, H215L counted along it

Row | Binder | Kd [pM]
40 | B4 | 900
41 | B12 | 630
